According to article PMC9482650, “Quantitative fragmentomics allow affinity mapping of interactomes” (Nature Communications, 2022):

T1: SNTG2, Q9NY99
T1 sequence (Q9NY99 68-166, limits assumed, looked up): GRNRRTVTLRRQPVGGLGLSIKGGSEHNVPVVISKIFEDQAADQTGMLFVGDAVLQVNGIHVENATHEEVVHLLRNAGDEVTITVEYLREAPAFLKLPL

T2: APBA1_2, Q02410
T2 sequence (Q02410 742-832, limits assumed, looked up): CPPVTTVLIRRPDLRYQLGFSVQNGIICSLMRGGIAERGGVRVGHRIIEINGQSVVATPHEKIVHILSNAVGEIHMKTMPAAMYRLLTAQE

T3: CARD11, Q9BXL7
T3 sequence (Q9BXL7 662-765, limits assumed, looked up): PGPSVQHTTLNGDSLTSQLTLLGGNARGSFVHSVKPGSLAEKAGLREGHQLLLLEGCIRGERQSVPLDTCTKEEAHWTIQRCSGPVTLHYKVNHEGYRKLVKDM

T4: LRRC7, Q96NW7
T4 sequence (Q96NW7 1440-1537, limits assumed, looked up): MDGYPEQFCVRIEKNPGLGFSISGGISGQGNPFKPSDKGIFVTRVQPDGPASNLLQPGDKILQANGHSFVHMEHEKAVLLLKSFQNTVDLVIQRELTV

T5: NHERF3_3, Q5T2W1
T5 sequence (Q5T2W1 238-333, limits assumed, looked up): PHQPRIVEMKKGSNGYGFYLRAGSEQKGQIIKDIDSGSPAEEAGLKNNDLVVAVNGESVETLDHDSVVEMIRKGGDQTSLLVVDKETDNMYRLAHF

T6: MPP6, Q9NZW5
T6 sequence (Q9NZW5 125-219, limits assumed, looked up): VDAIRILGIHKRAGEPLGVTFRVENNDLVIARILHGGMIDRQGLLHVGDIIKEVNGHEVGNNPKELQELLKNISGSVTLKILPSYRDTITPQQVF

T7: NHERF3_1, Q5T2W1
T7 sequence (Q5T2W1 4-100, limits assumed, looked up): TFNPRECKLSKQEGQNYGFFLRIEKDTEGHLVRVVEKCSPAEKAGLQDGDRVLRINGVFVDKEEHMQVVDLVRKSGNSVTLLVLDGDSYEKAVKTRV

T8: PARD3B_1, Q8TEW8
T8 sequence (Q8TEW8 196-299, limits assumed, looked up): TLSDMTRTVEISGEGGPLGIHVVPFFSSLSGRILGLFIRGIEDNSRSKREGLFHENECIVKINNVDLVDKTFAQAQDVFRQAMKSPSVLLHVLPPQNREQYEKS

T9: SNTG1, Q9NSN8
T9 sequence (Q9NSN8 52-150, limits assumed, looked up): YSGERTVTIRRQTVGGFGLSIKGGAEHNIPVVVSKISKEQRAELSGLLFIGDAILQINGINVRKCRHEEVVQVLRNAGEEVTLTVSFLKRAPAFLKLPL


molecular target: AHNAK1, Q09666; test: holdup assay; parameters: key: below the threshold = too weak to quantify, mostly under pKd 3.1 to 4; conditions: plain residues with an end cap or a label only (N-terminal biotin on a linker: ado-ado)
Sequence (Q09666 4-100): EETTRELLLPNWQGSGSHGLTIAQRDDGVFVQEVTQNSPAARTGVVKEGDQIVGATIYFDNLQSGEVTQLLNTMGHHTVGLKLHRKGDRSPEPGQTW

pKd	Binder
below the threshold	SGDGKTSVWI [GJC1, P36383]
below the threshold	TKDKVQETQI [LRRC4, Q9HBW1]

molecular target: GRASP, Q7Z6J2; test: holdup assay; parameters: key: below the threshold = too weak to quantify, mostly under pKd 3.1 to 4; conditions: plain residues with an end cap or a label only (N-terminal biotin on a linker: ado-ado)
Sequence (Q7Z6J2 96-193): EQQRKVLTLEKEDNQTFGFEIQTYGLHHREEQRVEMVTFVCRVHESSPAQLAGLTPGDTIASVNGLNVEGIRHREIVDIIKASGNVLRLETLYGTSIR

pKd	Binder
below the threshold	SGDGKTSVWI [GJC1, P36383]
below the threshold	TKDKVQETQI [LRRC4, Q9HBW1]

molecular target: LNX1_1, Q8TBB1; test: holdup assay; parameters: key: below the threshold = too weak to quantify, mostly under pKd 3.1 to 4; conditions: plain residues with an end cap or a label only (N-terminal biotin on a linker: ado-ado)
Sequence (Q8TBB1 261-371): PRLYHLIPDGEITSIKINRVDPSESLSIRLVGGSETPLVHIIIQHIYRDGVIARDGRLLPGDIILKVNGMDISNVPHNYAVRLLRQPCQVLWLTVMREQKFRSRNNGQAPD

pKd	Binder
below the threshold	SGDGKTSVWI [GJC1, P36383]
3.99	TKDKVQETQI [LRRC4, Q9HBW1]

molecular target: IL16_4, Q14005; test: holdup assay; parameters: key: below the threshold = too weak to quantify, mostly under pKd 3.1 to 4; conditions: plain residues with an end cap or a label only (N-terminal biotin on a linker: ado-ado)
Sequence (Q14005 1229-1329): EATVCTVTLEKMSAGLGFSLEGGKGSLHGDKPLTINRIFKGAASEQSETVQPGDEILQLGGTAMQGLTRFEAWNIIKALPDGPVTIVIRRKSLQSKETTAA

pKd	Binder
below the threshold	SGDGKTSVWI [GJC1, P36383]
below the threshold	TKDKVQETQI [LRRC4, Q9HBW1]

molecular target: T1, SNTG2, Q9NY99; test: holdup assay; parameters: key: below the threshold = too weak to quantify, mostly under pKd 3.1 to 4; conditions: plain residues with an end cap or a label only (N-terminal biotin on a linker: ado-ado)

pKd	Binder
below the threshold	SGDGKTSVWI [GJC1, P36383]
5.1	TKDKVQETQI [LRRC4, Q9HBW1]

molecular target: NHERF4_4, Q86UT5; test: holdup assay; parameters: key: below the threshold = too weak to quantify, mostly under pKd 3.1 to 4; conditions: plain residues with an end cap or a label only (N-terminal biotin on a linker: ado-ado)
Sequence (Q86UT5 464-550): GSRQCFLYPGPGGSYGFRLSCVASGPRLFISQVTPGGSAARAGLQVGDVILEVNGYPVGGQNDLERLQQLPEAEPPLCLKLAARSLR

pKd	Binder
4.24	SGDGKTSVWI [GJC1, P36383]
3.95	TKDKVQETQI [LRRC4, Q9HBW1]

molecular target: SCRIB_3, Q14160; test: holdup assay; parameters: key: below the threshold = too weak to quantify, mostly under pKd 3.1 to 4; conditions: plain residues with an end cap or a label only (N-terminal biotin on a linker: ado-ado)
Sequence (Q14160 999-1103): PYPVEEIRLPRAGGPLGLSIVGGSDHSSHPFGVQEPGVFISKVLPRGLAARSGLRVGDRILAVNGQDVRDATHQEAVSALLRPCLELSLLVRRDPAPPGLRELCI

pKd	Binder
4.21	SGDGKTSVWI [GJC1, P36383]
5	TKDKVQETQI [LRRC4, Q9HBW1]

molecular target: T2, APBA1_2, Q02410; test: holdup assay; parameters: key: below the threshold = too weak to quantify, mostly under pKd 3.1 to 4; conditions: plain residues with an end cap or a label only (N-terminal biotin on a linker: ado-ado)

pKd	Binder
4.44	SGDGKTSVWI [GJC1, P36383]
3.55	TKDKVQETQI [LRRC4, Q9HBW1]

molecular target: GRIP2_6, Q9C0E4; test: holdup assay; parameters: key: below the threshold = too weak to quantify, mostly under pKd 3.1 to 4; conditions: plain residues with an end cap or a label only (N-terminal biotin on a linker: ado-ado)
Sequence (Q9C0E4 648-740): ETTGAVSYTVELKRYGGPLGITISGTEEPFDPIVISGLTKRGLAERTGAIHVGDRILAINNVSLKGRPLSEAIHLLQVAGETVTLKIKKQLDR

pKd	Binder
3.55	SGDGKTSVWI [GJC1, P36383]
below the threshold	TKDKVQETQI [LRRC4, Q9HBW1]

molecular target: SCRIB_1, Q14160; test: holdup assay; parameters: key: below the threshold = too weak to quantify, mostly under pKd 3.1 to 4; conditions: plain residues with an end cap or a label only (N-terminal biotin on a linker: ado-ado)
Sequence (Q14160 718-814): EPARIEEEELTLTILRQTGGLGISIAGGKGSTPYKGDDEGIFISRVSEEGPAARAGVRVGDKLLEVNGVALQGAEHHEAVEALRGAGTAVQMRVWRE

pKd	Binder
3.94	SGDGKTSVWI [GJC1, P36383]
5.19	TKDKVQETQI [LRRC4, Q9HBW1]

molecular target: T3, CARD11, Q9BXL7; test: holdup assay; parameters: key: below the threshold = too weak to quantify, mostly under pKd 3.1 to 4; conditions: plain residues with an end cap or a label only (N-terminal biotin on a linker: ado-ado)

pKd	Binder
below the threshold	SGDGKTSVWI [GJC1, P36383]
below the threshold	TKDKVQETQI [LRRC4, Q9HBW1]

molecular target: PTPN3, P26045; test: holdup assay; parameters: key: below the threshold = too weak to quantify, mostly under pKd 3.1 to 4; conditions: plain residues with an end cap or a label only (N-terminal biotin on a linker: ado-ado)
Sequence (P26045 505-587): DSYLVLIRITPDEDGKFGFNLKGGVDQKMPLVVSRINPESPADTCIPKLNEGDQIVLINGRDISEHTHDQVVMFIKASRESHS

pKd	Binder
4.06	SGDGKTSVWI [GJC1, P36383]
5.05	TKDKVQETQI [LRRC4, Q9HBW1]

molecular target: DLG1_3, Q12959; test: holdup assay; parameters: key: below the threshold = too weak to quantify, mostly under pKd 3.1 to 4; conditions: plain residues with an end cap or a label only (N-terminal biotin on a linker: ado-ado)
Sequence (Q12959 457-571): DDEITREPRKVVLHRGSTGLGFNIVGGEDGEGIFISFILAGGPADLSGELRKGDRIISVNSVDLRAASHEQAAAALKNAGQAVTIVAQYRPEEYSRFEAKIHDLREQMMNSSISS

pKd	Binder
below the threshold	SGDGKTSVWI [GJC1, P36383]
4.18	TKDKVQETQI [LRRC4, Q9HBW1]

molecular target: LIMK2, P53671; test: holdup assay; parameters: key: below the threshold = too weak to quantify, mostly under pKd 3.1 to 4; conditions: plain residues with an end cap or a label only (N-terminal biotin on a linker: ado-ado)
Sequence (P53671 143-248): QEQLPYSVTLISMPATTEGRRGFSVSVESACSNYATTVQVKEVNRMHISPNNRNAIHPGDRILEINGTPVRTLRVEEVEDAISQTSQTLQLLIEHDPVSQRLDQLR

pKd	Binder
below the threshold	SGDGKTSVWI [GJC1, P36383]
below the threshold	TKDKVQETQI [LRRC4, Q9HBW1]

molecular target: MAGI2_3, Q86UL8; test: holdup assay; parameters: key: below the threshold = too weak to quantify, mostly under pKd 3.1 to 4; conditions: plain residues with an end cap or a label only (N-terminal biotin on a linker: ado-ado)
Sequence (Q86UL8 600-682): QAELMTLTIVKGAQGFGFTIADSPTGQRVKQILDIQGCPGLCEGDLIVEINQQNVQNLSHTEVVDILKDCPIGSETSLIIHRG

pKd	Binder
below the threshold	SGDGKTSVWI [GJC1, P36383]
3.96	TKDKVQETQI [LRRC4, Q9HBW1]

molecular target: IL16_1, Q14005; test: holdup assay; parameters: key: below the threshold = too weak to quantify, mostly under pKd 3.1 to 4; conditions: plain residues with an end cap or a label only (N-terminal biotin on a linker: ado-ado)
Sequence (Q14005 210-306): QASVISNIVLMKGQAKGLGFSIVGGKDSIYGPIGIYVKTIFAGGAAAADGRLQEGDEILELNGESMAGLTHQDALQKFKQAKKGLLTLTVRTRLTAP

pKd	Binder
below the threshold	SGDGKTSVWI [GJC1, P36383]
3.54	TKDKVQETQI [LRRC4, Q9HBW1]

molecular target: T4, LRRC7, Q96NW7; test: holdup assay; parameters: key: below the threshold = too weak to quantify, mostly under pKd 3.1 to 4; conditions: plain residues with an end cap or a label only (N-terminal biotin on a linker: ado-ado)

pKd	Binder
3.49	SGDGKTSVWI [GJC1, P36383]
3.53	TKDKVQETQI [LRRC4, Q9HBW1]

molecular target: T5, NHERF3_3, Q5T2W1; test: holdup assay; parameters: key: below the threshold = too weak to quantify, mostly under pKd 3.1 to 4; conditions: plain residues with an end cap or a label only (N-terminal biotin on a linker: ado-ado)

pKd	Binder
below the threshold	SGDGKTSVWI [GJC1, P36383]
below the threshold	TKDKVQETQI [LRRC4, Q9HBW1]

molecular target: T6, MPP6, Q9NZW5; test: holdup assay; parameters: key: below the threshold = too weak to quantify, mostly under pKd 3.1 to 4; conditions: plain residues with an end cap or a label only (N-terminal biotin on a linker: ado-ado)

pKd	Binder
below the threshold	SGDGKTSVWI [GJC1, P36383]
3.89	TKDKVQETQI [LRRC4, Q9HBW1]

molecular target: DLG2_2, Q15700; test: holdup assay; parameters: key: below the threshold = too weak to quantify, mostly under pKd 3.1 to 4; conditions: plain residues with an end cap or a label only (N-terminal biotin on a linker: ado-ado)
Sequence (Q15700 189-283): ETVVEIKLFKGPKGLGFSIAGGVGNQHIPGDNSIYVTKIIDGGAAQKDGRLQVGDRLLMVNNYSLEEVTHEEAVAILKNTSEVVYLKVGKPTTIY

pKd	Binder
below the threshold	SGDGKTSVWI [GJC1, P36383]
4.67	TKDKVQETQI [LRRC4, Q9HBW1]

molecular target: Inadl_3, Q8NI35; test: holdup assay; parameters: key: below the threshold = too weak to quantify, mostly under pKd 3.1 to 4; conditions: plain residues with an end cap or a label only (N-terminal biotin on a linker: ado-ado)
Sequence (Q8NI35 359-469): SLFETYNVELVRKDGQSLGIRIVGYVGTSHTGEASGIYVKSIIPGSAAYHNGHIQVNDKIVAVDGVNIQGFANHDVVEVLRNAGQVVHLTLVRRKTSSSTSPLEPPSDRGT

pKd	Binder
3.69	SGDGKTSVWI [GJC1, P36383]
3.56	TKDKVQETQI [LRRC4, Q9HBW1]

molecular target: T7, NHERF3_1, Q5T2W1; test: holdup assay; parameters: key: below the threshold = too weak to quantify, mostly under pKd 3.1 to 4; conditions: plain residues with an end cap or a label only (N-terminal biotin on a linker: ado-ado)

pKd	Binder
3.75	SGDGKTSVWI [GJC1, P36383]
5.21	TKDKVQETQI [LRRC4, Q9HBW1]

molecular target: T8, PARD3B_1, Q8TEW8; test: holdup assay; parameters: key: below the threshold = too weak to quantify, mostly under pKd 3.1 to 4; conditions: plain residues with an end cap or a label only (N-terminal biotin on a linker: ado-ado)

pKd	Binder
4.77	SGDGKTSVWI [GJC1, P36383]
3.76	TKDKVQETQI [LRRC4, Q9HBW1]

molecular target: DLG5_1, Q8TDM6; test: holdup assay; parameters: key: below the threshold = too weak to quantify, mostly under pKd 3.1 to 4; conditions: plain residues with an end cap or a label only (N-terminal biotin on a linker: ado-ado)
Sequence (Q8TDM6 617-713): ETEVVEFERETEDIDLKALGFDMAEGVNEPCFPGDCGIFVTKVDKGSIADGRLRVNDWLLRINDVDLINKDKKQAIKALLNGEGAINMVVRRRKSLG

pKd	Binder
below the threshold	SGDGKTSVWI [GJC1, P36383]
below the threshold	TKDKVQETQI [LRRC4, Q9HBW1]

molecular target: T9, SNTG1, Q9NSN8; test: holdup assay; parameters: key: below the threshold = too weak to quantify, mostly under pKd 3.1 to 4; conditions: plain residues with an end cap or a label only (N-terminal biotin on a linker: ado-ado)

pKd	Binder
3.61	SGDGKTSVWI [GJC1, P36383]
4.97	TKDKVQETQI [LRRC4, Q9HBW1]

molecular target: PICK1, Q9NRD5; test: holdup assay; parameters: key: below the threshold = too weak to quantify, mostly under pKd 3.1 to 4; conditions: plain residues with an end cap or a label only (N-terminal biotin on a linker: ado-ado)
Sequence (Q9NRD5 17-115): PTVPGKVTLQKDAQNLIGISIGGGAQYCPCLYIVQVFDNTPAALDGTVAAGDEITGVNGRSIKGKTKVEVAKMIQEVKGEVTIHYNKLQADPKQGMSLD

pKd	Binder
below the threshold	SGDGKTSVWI [GJC1, P36383]
below the threshold	TKDKVQETQI [LRRC4, Q9HBW1]

molecular target: LDB3, O75112; test: holdup assay; parameters: key: below the threshold = too weak to quantify, mostly under pKd 3.1 to 4; conditions: plain residues with an end cap or a label only (N-terminal biotin on a linker: ado-ado)
Sequence (O75112 1-94): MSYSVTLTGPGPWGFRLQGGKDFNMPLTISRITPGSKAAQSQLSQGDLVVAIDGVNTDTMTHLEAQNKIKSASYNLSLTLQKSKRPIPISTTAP

pKd	Binder
below the threshold	SGDGKTSVWI [GJC1, P36383]
below the threshold	TKDKVQETQI [LRRC4, Q9HBW1]

molecular target: TJP1_3, Q07157; test: holdup assay; parameters: key: below the threshold = too weak to quantify, mostly under pKd 3.1 to 4; conditions: plain residues with an end cap or a label only (N-terminal biotin on a linker: ado-ado)
Sequence (Q07157 416-512): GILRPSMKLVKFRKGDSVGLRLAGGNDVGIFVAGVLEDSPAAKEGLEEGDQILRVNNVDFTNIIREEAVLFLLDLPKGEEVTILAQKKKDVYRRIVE

pKd	Binder
4.11	SGDGKTSVWI [GJC1, P36383]
below the threshold	TKDKVQETQI [LRRC4, Q9HBW1]
